# Reference: the supplement of paper PMC10724198
# ± gives the standard deviation of the averaged measurements.
# How the values were obtained:
# Saccharomyces cerevisiae [1] = experiment: protein stability index of tFT-peptide fusion in wild type (PSI (0-1 scale)); higher = more stable (slower turnover); conditions: genetic background: wild type
# Method: (§1)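 MPS profiling in S. cerevisiae of two library types built from selected 12-aa C-degron peptides (IN1, IN2, LN1, LN3, VN2, R1-R5, W1-W3, Atg1 and Rpa12 C-termini): saturation mutagenesis libraries and C-terminal +1 capping libraries (13 aa). Each peptide is fused to the C-terminus of a sfGFP-mCherry timer, after a GGGS linker. Cells are FACS-sorted into 8 mCherry/sfGFP bins and sequenced. PSI runs from 0 (unstable) to 1 (stable), measured once in wild type and in the das1Δ or doa10Δ background.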
# Saccharomyces cerevisiae [2] = experiment: protein stability index of tFT-peptide fusion in deletion strain of DAS1 (PSI (0-1 scale)); higher = more stable (slower turnover)
# Method: as §1
# Saccharomyces cerevisiae [3] = experiment: protein stability index of tFT-peptide fusion (C-terminal peptide) (PSI (0-1 scale)); higher = more stable (slower turnover); conditions: temperature: 30 C
# Method: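 MPS profiling in S. cerevisiae of the yeast C-terminome library: the last 12 aa of each annotated ORF are fused to the C-terminus of a sfGFP-mCherry timer, after a GGGS linker. Cells are FACS-sorted into 8 mCherry/sfGFP bins and deep-sequenced. PSI runs from 0 (unstable) to 1 (stable); wild type and das1Δ backgrounds, two technical replicates each.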
# [4] = genetic background: das1 deletion
# 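Throughout, for protein stability index of tFT-peptide fusion in deletion strain of DAS1: PSI is a weighted mean of each variant's read distribution over the sorted stability bins, computed only for variants having over 10 reads in total.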
# 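Throughout, for protein stability index of tFT-peptide fusion in wild type: PSI derived as read-weighted mean over the 8 sorting bins, only variants exceeding 10 total reads kept, mCherry placed adjacent to the peptide and sfGFP distal.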
Sequence,protein stability index (Saccharomyces cerevisiae [1]),protein stability index (Saccharomyces cerevisiae [2]),protein stability index (Saccharomyces cerevisiae [3]; [4]),protein stability index (Saccharomyces cerevisiae [3]; genetic background: wild type)
KKHKKGQKQKING,0.293,0.653,,
LVVYLSCVACIV,0.0146,0.0299,,
RLIQPLPRQFLN,0.19,0.596,,
LVVYLSCVACIQ,0.0107,0.0327,,
GRGAVGGWRLVG,0.19,0.671,,
KSMRWTFRYWVN,0.0597,0.578,,
RHIQPLPVQFLN,0.167,0.588,,
VRSAVGGWRLVG,0.141,0.685,,
KKHLKGQKQKIN,0.0828,0.608,,
VRGAAGGWRLVG,0.164,0.689,,
CTSCGYKFRINN,0.233,0.721,,
LTILRQKMNHQN,0.123,0.679,,
TAAQILKKQNRL [YDR541C C-terminal 12 aa],,,0.6454 ± 0.0021,0.704 ± 0.063
SKQEKPLSRPKD [GPI15 C-terminal 12 aa],,,0.718 ± 0.013,0.684 ± 0.022
EQIELKNFFVDV [YCR016W C-terminal 12 aa],,,0.6881 ± 0.0062,0.6997 ± 0.0015
EFEKAQEINKKA [YRB1 C-terminal 12 aa],,,0.712 ± 0.017,0.694 ± 0.02
SGAGARGSSAAA [LYS2 C-terminal 12 aa],,,0.702 ± 0.011,0.676 ± 0.032
DEADSSMTEASV [SNF2 C-terminal 12 aa],,,0.704 ± 0.033,0.634 ± 0.015
QIILQKEGVLDK [KCC4 C-terminal 12 aa],,,0.704 ± 0.0035,0.672 ± 0.0083
DLTKKPKKITFD [DBP3 C-terminal 12 aa],,,0.6923 ± 0.0048,0.638 ± 0.018
DSLENKIDSMTK [INH1 C-terminal 12 aa],,,0.715 ± 0.018,0.714 ± 0.055

Sequence,protein stability index (Saccharomyces cerevisiae [1]),protein stability index (Saccharomyces cerevisiae [2]),protein stability index (Saccharomyces cerevisiae [3]; [4]),protein stability index (Saccharomyces cerevisiae [3]; genetic background: wild type)
VATYLREHEYDQ [AAP1 C-terminal 12 aa],,,0.6847 ± 0.0021,0.7314 ± 0.0051
FGWFDMNMEQGF [SEF1 C-terminal 12 aa],,,0.7562 ± 0.0074,0.757 ± 0.023
LKIKVHIYRMKR [YHL015W-A C-terminal 12 aa],,,0.597 ± 0.021,0.5995 ± 0.0016
LVHFLGLILNNF [YNL171C C-terminal 12 aa],,,0.68 ± 0.018,0.624 ± 0.014
SFSYLWRNFGFI [PDR18 C-terminal 12 aa],,,0.7475 ± 0.0067,0.716 ± 0.027
FDVELVDVKSAA [FPR2 C-terminal 12 aa],,,0.6795 ± 0.0018,0.687 ± 0.037
LPPGLNSKKNIK [EAP1 C-terminal 12 aa],,,0.69532 ± 0.00062,0.658 ± 0.01
PEMDKEKKKFYL [RPF1 C-terminal 12 aa],,,0.724 ± 0.04,0.708 ± 0.06
NTESSCGFFQWV [APN2 C-terminal 12 aa],,,0.72737 ± 0.00023,0.737 ± 0.02
STSSLKRQRTDF [REX2 C-terminal 12 aa],,,0.718 ± 0.011,0.712 ± 0.017
IRLFRSARRWVG [ADE6 C-terminal 12 aa],,,0.7017 ± 0.0011,0.66 ± 0.0083
LAKGGADVKPKK [RDL2 C-terminal 12 aa],,,0.7071 ± 0.0016,0.708 ± 0.033
ANEMADELSRYL [IRC6 C-terminal 12 aa],,,0.724 ± 0.019,0.7344 ± 0.0047
ESPIDAEKNFAR [INA1 C-terminal 12 aa],,,0.693 ± 0.0098,0.6821 ± 0.0024
YAGENFHHGDKL [ENO2 C-terminal 12 aa],,,0.6954 ± 0.003,0.749 ± 0.034
HKKEVVSKGDDY [MAP2 C-terminal 12 aa],,,0.6695 ± 0.0046,0.653 ± 0.026
LSLRSLQIMGRN [DSS4 C-terminal 12 aa],,,0.6993 ± 0.00084,0.726 ± 0.024
PEGGDGPKYTLT [CIR2 C-terminal 12 aa],,,0.688 ± 0.018,0.721 ± 0.016
IKVDNIVHIRND [YFH7 C-terminal 12 aa],,,0.6928 ± 0.0038,0.723 ± 0.039
VYALSIKRSKLT [EPT1 C-terminal 12 aa],,,0.6803 ± 0.0053,0.208 ± 0.0051
YNLKNDILTNLE [SWI1 C-terminal 12 aa],,,0.73 ± 0.021,0.651 ± 0.044

Sequence,protein stability index (Saccharomyces cerevisiae [1]),protein stability index (Saccharomyces cerevisiae [2]),protein stability index (Saccharomyces cerevisiae [3]; [4]),protein stability index (Saccharomyces cerevisiae [3]; genetic background: wild type)
RDAEILAKIAKD [HSP10 C-terminal 12 aa],,,0.683 ± 0.021,0.677 ± 0.0077
KKGPKFKSRKKL [RRP12 C-terminal 12 aa],,,0.748 ± 0.037,0.678 ± 0.011
LEKQEDYIDNLV [RPC37 C-terminal 12 aa],,,0.697 ± 0.02,0.73 ± 0.056
QTVRKLDMDFEV [REV1 C-terminal 12 aa],,,0.735 ± 0.032,0.656 ± 0.03
ILQCFTDEILNC [NDJ1 C-terminal 12 aa],,,0.691 ± 0.0087,0.68 ± 0.022
GKRNYLLSVTFV [YCR006C C-terminal 12 aa],,,0.653 ± 0.012,0.6385 ± 0.0019
TVSSVESVLAHL [AHP1 C-terminal 12 aa],,,0.728 ± 0.016,0.7489 ± 0.0029
APEFLDWLDEEN [HEM2 C-terminal 12 aa],,,0.738 ± 0.011,0.6793 ± 0.0033
GEKKQKGQALQF [RPL42A C-terminal 12 aa],,,0.68 ± 0.025,0.662 ± 0.051
LSEASKLASKPL [COX15 C-terminal 12 aa],,,0.701 ± 0.0094,0.704 ± 0.039
DEKLHSHNASPN [YNL198C C-terminal 12 aa],,,0.6788 ± 0.0032,0.697 ± 0.014
LKNGDKPHMLKF [RPL6A C-terminal 12 aa],,,0.6789 ± 0.0021,0.72 ± 0.053
LLLQKSGTYLLL [ARV1 C-terminal 12 aa],,,0.639 ± 0.032,0.638 ± 0.0066
RTTFRTLSSYGK [YHL041W C-terminal 12 aa],,,0.713 ± 0.0099,0.648 ± 0.037
GVEKYWGILSSD [SCW10 C-terminal 12 aa],,,0.7123 ± 0.0033,0.716 ± 0.028
EVSQYAAFFQDD [CTM1 C-terminal 12 aa],,,0.719 ± 0.02,0.712 ± 0.028
ATFSHPELTNIH [SDH6 C-terminal 12 aa],,,0.716 ± 0.01,0.716 ± 0.024
RHRKSEDRSLEA [ATR2 C-terminal 12 aa],,,0.706 ± 0.029,0.703 ± 0.062
SKKTTISAKKQQ [SGE1 C-terminal 12 aa],,,0.713 ± 0.014,0.51092 ± 0.00037
VDVLKLNDPTRH [BCY1 C-terminal 12 aa],,,0.716 ± 0.031,0.706 ± 0.042
NTHDLHLRPGTY [YBL005W-A C-terminal 12 aa],,,0.6794 ± 0.00083,0.708 ± 0.013

Sequence,protein stability index (Saccharomyces cerevisiae [1]),protein stability index (Saccharomyces cerevisiae [2]),protein stability index (Saccharomyces cerevisiae [3]; [4]),protein stability index (Saccharomyces cerevisiae [3]; genetic background: wild type)
DRLKRRNNDYGF [MSO1 C-terminal 12 aa],,,0.695 ± 0.014,0.738 ± 0.054
LSDKNPEFKYMY [TNA1 C-terminal 12 aa],,,0.686 ± 0.0071,0.706 ± 0.0095
KKLNRKIASIFN [ZEO1 C-terminal 12 aa],,,0.718 ± 0.011,0.6644 ± 0.0016
ATMALRKLVSRE [MSA2 C-terminal 12 aa],,,0.693 ± 0.025,0.705 ± 0.061
KVTFINIEINYR [YGR064W C-terminal 12 aa],,,0.57 ± 0.02,0.591 ± 0.03
TALLENDANLIS [ERV15 C-terminal 12 aa],,,0.703 ± 0.019,0.703 ± 0.021
PGDTLIEVIDLT [WSS1 C-terminal 12 aa],,,0.692 ± 0.025,0.7105 ± 0.00019
NSIISLEALDAI [SMX2 C-terminal 12 aa],,,0.72 ± 0.039,0.708 ± 0.022
PTVTRKTPDYFL [PPH22 C-terminal 12 aa],,,0.696 ± 0.0091,0.718 ± 0.089
ALDAERYLSAQE [TRR2 C-terminal 12 aa],,,0.698 ± 0.025,0.672 ± 0.015
FMGGFLSKGNKR [ROG3 C-terminal 12 aa],,,0.706 ± 0.012,0.683 ± 0.029
ASDEPSRKKNRR [SSN3 C-terminal 12 aa],,,0.743 ± 0.044,0.704 ± 0.056
SYRVMQPNEFES [YGL214W C-terminal 12 aa],,,0.7 ± 0.016,0.711 ± 0.11
NEEMAEISNPFR [FEN2 C-terminal 12 aa],,,0.699 ± 0.019,0.711 ± 0.026
EALTKASNVNKL [CIT3 C-terminal 12 aa],,,0.6972 ± 0.0031,0.65 ± 0.041
GAALMALLGKWA [ZRT2 C-terminal 12 aa],,,0.725 ± 0.021,0.6381 ± 0.0041
ALHLLTKFTHII [SBH2 C-terminal 12 aa],,,0.733 ± 0.012,0.167 ± 0.043
SATFTSDHIGHI [RIM21 C-terminal 12 aa],,,0.7167 ± 0.0052,0.685 ± 0.042
